Laboratory results from article PMC5742583, “A Functional Analysis on the Interspecies Interaction between Mouse LFA-1 and Human Intercellular Adhesion Molecule-1 at the Cell Level” (Frontiers in Immunology, 2017).

What was measured:
human LFA-1 = details: purified cell-free models; ref [29]; cited from earlier work
From the text: Humanized mice are widely used as in vivo models to study the molecular basis of immune-related disorders as well as the efficacy of potential drugs ([23]). In these mice, the native gene of interest is replaced by its human homolog or the immune system is eliminated and reconstituted with its human counterpart. In addition, these mice can be used to enhance the engraftment of human cancer cells allowing in vivo studies of cancer progression and treatment. Here, a major obstacle to analyze human cell function, either healthy or transformed, and disease is the lack of species cross-reactivity o ...

[1] = system: gp33-pulsed EL4 cells killed by mouse Tc cells (ICAM-1/LFA-1); assay: CD8+ T cell-mediated cytotoxicity on EL4; assay type: cell-based; details: ICAM-1 proteins, several (increasing) amounts, preincubation 45 min 37°C, effector:target 10:1, 4 h, annexin-V/7-AAD by FACS, three experiments by duplicate
mouse macrophages [2] = assay: Mouse macrophage adhesion to mouse ICAM-1 (D1D5Fc)-coated plates; assay type: cell-based; details: plates coated with 5 µg mouse D1D5Fc; compared with human D1D5Fc; MTT
Method: (§1) Mouse macrophages were differentiated from mouse bone marrow as previously described ([37]). Briefly, bone marrow cells isolated from mouse femur were cultured in DMEM 10% FBS, 5% horse serum, and 30% supernatant of L929 cell culture as a source of M-CSF at a density of 10^6/cm^2 for 7–8 days. Macrophage differentiation was analyzed in the same way as human macrophages but using CD11b-APC and CD11c-PE (BD) antibodies.
(§2) Freshly isolated monocytes or differentiated macrophages were washed twice with PBS and incubated with trypsin (PAN Biotech) for 30 min at 37°C 5% CO2. After that, cells were scraped gently from the plate and resuspended at a final concentration of 10^6 cells/ml in complete RPMI medium. Subsequently, 10^5 macrophages and 5 × 10^5 monocytes were added to each well and incubated with several concentrations of human D1D2, D1D2Fc, D1D5Fc, mouse D1D5Fc, control human IgG1 20 µg or lovastatin 100 µM at 37°C 5% CO2 overnight. Next day, every well was washed twice with PBS, complete RPMI medium was added and the number or adherent remaining cells was quantified by a MTT colorimetric test ([38]). In some experiments, plates previously coated with human and mouse D1D5Fc were used. […]
(§3) Figure 7 Human intercellular adhesion molecule (ICAM)-1 blocks LFA-1-mediated mouse macrophage cell adhesion. […] (B) Macrophage phenotype was analyzed by flow cytometry testing the expression CD11b and CD11c. […]

[3] = system: LFA-1 in the mouse T cell line EL4; assay: Binding of ICAM-1 chimeras to LFA-1 on EL4 cells by flow cytometry; assay type: cell-based; details: mouse or human D1D5Fc 0.1 and 5 µg, 4°C 45 min; representative experiment
Method: The ability of human D1D2Fc and mouse and human D1D5Fc to recognize LFA-1 on mouse cells was analyzed by flow cytometry in the mouse thymic lymphoma cell line EL4. EL4 cells were incubated with different concentrations of human D1D2Fc, mouse and human D1D5Fc and human IgG1 control at 4°C for 45 min, washed twice with FACS buffer (PBS, 5% FCS, 0.1% NaN3), and then incubated with PE-conjugated goat anti-human IgG (Fcγ fragment specific; Jackson ImmunoResearch). After a washing step with FACS buffer, cells were analyzed by FACS using a FACS Calibur with CellQuest Pro software (BD). As control cells were incubated with an antibody against mouse CD11a (LFA-1) before adding human D1D2Fc.
Figure 2 Analysis of D1D2Fc binding to LFA-1 in EL4 cells by flow cytometry. (A) Different amounts of D1D2Fc (0.1, 1, and 10 µg) or human IgG1 control (10 µg) were incubated with EL4 cells. After washing out non-bound proteins, cells were incubated with PE-conjugated goat anti-human IgG Fcγ Ab and analyzed by flow cytometry. As a control EL4 cells were pretreated with a mouse LFA-1 blocking antibody (anti LFA-1) before incubating with 10 µg of D1D2Fc. Histograms show a representative experiment. […] After washing out non-bound proteins, cells were incubated with PE-conjugated goat anti-human IgG Fcγ Ab and analyzed by flow cytometry. […]

mouse macrophages [4] = assay: Mouse macrophage adhesion to human ICAM-1 (D1D5Fc)-coated plates; assay type: cell-based; details: plates coated with 5 µg human D1D5Fc; compared with mouse D1D5Fc; MTT
Method: as §1, §2, §3

Molecule	binding to human LFA-1 (human LFA-1)	inhibition of Tc cell-mediated cell death of EL4 [1]	inhibition of Tc cell-mediated cell death of EL4 ([1]; listed as mouse ICAM-1 (D1D5Fc))	adhesion of mouse macrophages to coated plate (mouse macrophages [2])	binding to EL4 cells [3]	adhesion of mouse macrophages to coated plate (mouse macrophages [4])
mouse ICAM-1: mouse ICAM-1, purified cell-free models of ref [29] (protein, UniProt P13597 28-537, looked up) Intercellular adhesion …: QVSIHPREAFLPQGGSVQVNCSSSCKEDLSLGLETQWLKDELESGPNWKLFELSEIGEDSSPLCFENCGTVQSSASATITVYSFPESVELRPLPAWQQVGKDLTLRCHVDGGAPRTQLSAVLLRGEEILSRQPVGGHPKDPKEITFTVLASRGDHGANFSCRTELDLRPQGLALFSNVSEARSLRTFDLPATIPKLDTPDLLEVGTQQKLFCSLEGLFPASEARIYLELGGQMPTQESTNSSDSVSATALVEVTEEFDRTLPLRCVLELADQILETQRTLTVYNFSAPVLTLSQLEVSEGSQVTVKCEAHSGSKVVLLSGVEPRPPTPQVQFTLNASSEDHKRSFFCSAALEVAGKFLFKNQTLELHVLYGPRLDETDCLGNWTWQEGSQQTLKCQAWGNPSPKMTCRRKADGALLPIGVVKSVKQEMNGTYVCHAFSSHGNVTRNVYLTVLYHSQNNWTIIILVPVLLVIVGLVMAASYVYNRQRKIRIYKLQKAQEEAIKLKGQAPPP	binds human LFA-1	–	–	–	–	–
mouse D1D5Fc: mouse Fc chimera containing the five extracellular domains of ICAM-1, R&D systems (protein, left off: Fc, end not stated, kept, mouse Fc chimera containing the five extracellular domains of ICAM-1, R&D systems) QVSIHPREAFLPQGGSVQVNCSSSCKEDLSLGLETQWLKDELESGPNWKLFELSEIGEDSSPLCFENCGTVQSSASATITVYSFPESVELRPLPAWQQVGKDLTLRCHVDGGAPRTQLSAVLLRGEEILSRQPVGGHPKDPKEITFTVLASRGDHGANFSCRTELDLRPQGLALFSNVSEARSLRTFDLPATIPKLDTPDLLEVGTQQKLFCSLEGLFPASEARIYLELGGQMPTQESTNSSDSVSATALVEVTEEFDRTLPLRCVLELADQILETQRTLTVYNFSAPVLTLSQLEVSEGSQVTVKCEAHSGSKVVLLSGVEPRPPTPQVQFTLNASSEDHKRSFFCSAALEVAGKFLFKNQTLELHVLYGPRLDETDCLGNWTWQEGSQQTLKCQAWGNPSPKMTCRRKADGALLPIGVVKSVKQEMNGTYVCHAFSSHGNVTRNVYLTVLYHSQNN	–	similarly prevented cell death	inhibited cell death	similarly adhered	bound to EL4 cells	–
human D1D5Fc: human Fc chimera containing the five extracellular domains of ICAM-1, R&D systems (protein, left off: Fc, end not stated, kept, human Fc chimera containing the five extracellular domains of ICAM-1, R&D systems) QTSVSPSKVILPRGGSVLVTCSTSCDQPKLLGIETPLPKKELLLPGNNRKVYELSNVQEDSQPMCYSNCPDGQSTAKTFLTVYWTPERVELAPLPSWQPVGKNLTLRCQVEGGAPRANLTVVLLRGEKELKREPAVGEPAEVTTTVLVRRDHHGANFSCRTELDLRPQGLELFENTSAPYQLQTFVLPATPPQLVSPRVLEVDTQGTVVCSLDGLFPVSEAQVHLALGDQRLNPTVTYGNDSFSAKASVSVTAEDEGTQRLTCAVILGNQSQETLQTVTIYSFPAPNVILTKPEVSEGTEVTVKCEAHPRAKVTLNGVPAQPLGPRAQLLLKATPEDNGRSFSCSATLEVAGQLIHKNQTRELRVLYGPRLDERDCPGNWTWPENSQQTPMCQAWGNPLPELKCLKDGTFPLPIGESVTVTRDLEGTYLCRARSTQGEVTRKVTVNVLSPRYE	–	–	–	–	binding of human ICAM-1 was higher than binding of mouse ICAM-1	similarly adhered
